Here are results for one molecule from patent US20260070976A1 (Alector, published 2026).

Test [1] addresses T1, recombinant human PILRB (human, UniProt Q9UKJ0 20-191). The test can be described thus: SPR, Carterra LSA, steady-state fit.
For test [2], the target named is T2, cell surface PILRA on human monocytes (human, UniProt Q9UKJ1 20-303). The test can be described thus: cell-based or functional assay.
Test [3] concerns the target T3, human PILRA G78 on HEK293F cells (human, UniProt Q9UKJ1 20-303).
T3 construct: also called hA; G78 OE
The test can be described thus: hA Kd of Table 9; method not stated (Example 8: HEK293F overexpressing cells, FACS).

The target of test [4] is T4, recombinant human PILRA (human, UniProt Q9UKJ1 20-197). The test can be described thus: SPR, Carterra LSA, antibody amine-coupled, kinetic fit. On the technique in general: SPR reads the build-up and loss of mass on a sensor chip optically.
T4 sequence (Q9UKJ1 20-197 limits assumed): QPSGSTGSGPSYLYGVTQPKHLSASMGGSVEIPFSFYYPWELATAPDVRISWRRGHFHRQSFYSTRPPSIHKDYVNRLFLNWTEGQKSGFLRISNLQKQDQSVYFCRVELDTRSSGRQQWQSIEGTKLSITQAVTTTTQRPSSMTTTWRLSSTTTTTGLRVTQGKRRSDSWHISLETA
In test [5] the target is T5, recombinant cynomolgus PILRA (SEQ ID NO:120) (cynomolgus monkey).
T5 construct: also called cyno PILRA
T5 sequence (chain, as listed by the source limits assumed): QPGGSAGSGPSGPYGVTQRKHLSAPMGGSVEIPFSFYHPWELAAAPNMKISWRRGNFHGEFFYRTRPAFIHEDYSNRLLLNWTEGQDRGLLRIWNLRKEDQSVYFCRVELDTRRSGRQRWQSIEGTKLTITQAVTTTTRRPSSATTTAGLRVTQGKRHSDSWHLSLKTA
Described as above.

Test [6] addresses cynomolgus PILRA on HEK293F cells (cynomolgus monkey, UniProt A0A7N9CRU1 20-292). The test can be described thus: cA Kd of Table 9; method not stated (Example 8: HEK293F overexpressing cells, FACS).
The target of test [7] is T3, human PILRA G78 on HEK293F cells. The test can be described thus: flow cytometry; HEK293F cells overexpressing human PILRA, goat anti-human IgG Alexa Fluor 647. How it is done:
Conditioned media samples containing the tested anti-PILRA antibodies were assessed for binding to HEK293F cells overexpressing human PILRA (hA), human PILRB (hB), and cynomolgus PILRA (cA) by FACS. The conditioned media containing the tested antibodies were incubated with the cells for 30 min at 4° C., washed twice, and then detected with goat anti-human IgG secondary antibody (Alexa Fluor 647) at 1:1000 dilution. The cells were analyzed by flow cytometry on FACS Canto II, and for all cell lines, the reported MFI values were calculated for each conditioned media. These antibodies were evaluated for nonspecific binding using a baculovirus particle (BVP) assay (Jain T., Sun T., Durand S., Hall A., Houston N. R., Nett J. H., Sharkey B., Bobrowicz B., Caffry L, Yu Y., et al. Biophysical properties of the clinical-stage antibody landscape. Proc. Natl. Acad. Sci. USA. 2017; 114:944-949. Doi: 10.1073/pnas.1616408114.). The BVP scores are listed in Table 9, and the higher the score the more nonspecific binding that occurred.
In general terms: A flow cytometer gives signals particle by particle.

Test [8] deals with T4, recombinant human PILRA. The test can be described thus: SPR, Biacore T200, antibody captured by anti-Fab. The method, then:
(§1) A subset of these antibodies was further evaluated using the Biacore T200 (Cytiva). Anti-PILRA antibodies were diluted to 10 μg/mL and captured using an anti-Fab (Cytiva, #28958325) surface on a CM4 chip, that was prepared by amine coupling according to the manufacturer's protocol. Human PILRA and cynomolgus PILRB were diluted in running buffer to 130 nM, and diluted 4-fold serially, twice, to 8 nM. Human PILRB was similarly diluted from 260 nM to 16 nM. These analytes were injected and allowed 2 minutes of association, followed by dissociation for 5 minutes.
(§2) Data were analyzed using Biacore evaluation software to generate kinetic constants. The equilibrium dissociation constants (KD) were calculated from the fitted association and dissociation rate constants (k-on and k-off) for each of the anti-PILRA antibodies. These Kn values are indicated with asterisks in Table 8 below.

In test [9] the target is T1, recombinant human PILRB. The test can be described thus: SPR, Biacore T200, antibody captured by anti-Fab. How it is done: as §1, §2
The target of test [10] is T2, cell surface PILRA on human monocytes. The test can be described thus: flow cytometry; Alexa Fluor 647-conjugated antibody on human CD14+ monocytes (second donor sample), Fc receptors blocked, 30 min on ice. The method, then:
Anti-human PILRA antibodies X0 (PA-29) and its affinity matured variants were tested for their abilities to bind cell surface PILRA on human and cynomolgus monocytes. CD14+ monocytes were isolated from healthy human donors using a RosetteSep Human Monocyte Enrichment Cocktail kit (StemCell). Cynomolgus white blood cells were collected from cynomolgus whole blood. In both human and cynomolgus samples, the Fc receptor on the tested monocytes was blocked and the monocytes were treated with Alexa Fluor 647-conjugated PILRA antibodies for 30 minutes on ice. A dose response curve of antibodies X0 (PA-29), X1, X2, X7, X11, X12, X13, X14, X16, X18, and X20 was tested for binding to cell surface PILRA in human and cynomolgus monocytes, and antibodies bound to PILRA in a dose response manner. In another sample of human donor monocytes, a dose response curve of antibodies X0 (PA-29), X1, X2, X11, X13, X18, X29 (PA-43), and X34 (A6) was tested for binding to cell surface PILRA in human and cynomolgus monocytes, and antibodies bound to PILRA in a dose response manner.

Usually Kd stands for the equilibrium constant for the complex coming apart. A word on the EC50 (read off the curve): it is the concentration at which the effect is half-maximal. The low end stands for higher potency in that assay, the high end for lower potency in that assay.

T2 sequence (Q9UKJ1 20-303): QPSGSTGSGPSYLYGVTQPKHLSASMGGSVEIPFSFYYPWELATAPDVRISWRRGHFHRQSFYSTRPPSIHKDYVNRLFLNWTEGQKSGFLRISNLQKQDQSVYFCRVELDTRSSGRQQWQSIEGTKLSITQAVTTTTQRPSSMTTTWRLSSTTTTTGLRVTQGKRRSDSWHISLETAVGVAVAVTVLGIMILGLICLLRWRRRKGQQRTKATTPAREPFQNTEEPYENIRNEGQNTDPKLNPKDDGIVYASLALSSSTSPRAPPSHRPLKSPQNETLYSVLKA
T3 sequence (Q9UKJ1 20-303 R78G): as the sequence (Q9UKJ1 20-303) above, with R59G counted along it
T1 sequence (Q9UKJ0 20-191 limits assumed): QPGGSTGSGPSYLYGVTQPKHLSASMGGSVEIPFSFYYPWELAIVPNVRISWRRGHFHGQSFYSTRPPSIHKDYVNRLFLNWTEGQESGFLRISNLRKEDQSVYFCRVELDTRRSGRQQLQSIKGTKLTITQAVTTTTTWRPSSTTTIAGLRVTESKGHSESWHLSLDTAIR
Chain of cynomolgus PILRA on HEK293F cells (A0A7N9CRU1 entry or part of it): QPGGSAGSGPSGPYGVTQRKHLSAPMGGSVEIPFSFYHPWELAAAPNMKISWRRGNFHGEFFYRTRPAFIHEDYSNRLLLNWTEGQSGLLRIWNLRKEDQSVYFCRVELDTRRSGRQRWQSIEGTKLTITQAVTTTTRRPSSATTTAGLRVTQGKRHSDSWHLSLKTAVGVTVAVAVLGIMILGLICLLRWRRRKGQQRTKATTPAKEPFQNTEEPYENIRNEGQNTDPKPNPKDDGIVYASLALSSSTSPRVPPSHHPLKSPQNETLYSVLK

B1: X13 (antibody, human IgG4, V domains shown)
VH: QVQLVQSGAEVKKPGSSVKVSCKASGYNFLHYDVNWVRQAPGQGLEWMGGIIPIFGTANYAQKFQGRVTITADESTSTAYMELSSLRSEDTAVYYCATAVGAGWFDPWGQGTLVTVSS
VL: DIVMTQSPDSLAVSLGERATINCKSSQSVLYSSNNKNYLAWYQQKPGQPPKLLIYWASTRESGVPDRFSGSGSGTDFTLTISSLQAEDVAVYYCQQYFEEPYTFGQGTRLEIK
notes: conditioned media in the HEK293F assays
In the case of B1, the Kd in test [1] stood at 18 nM; in [3], 0.2 nM; in test [4], 1.1 nM; in [5] it was 0.3 nM; in test [6], 0.4 nM; in test [8], 0.2 nM. Further, the Kd in test [9] is 9.1 nM. Besides, the “Hu Mono DR EC50” value in test [2] was roughly 0.0004 µg/mL. Moreover, the concentration for a half-maximal effect (EC50 (read off the curve)) in test [7] is roughly 0.3 µg/mL; in test [10], roughly 0.1 µg/mL.
